Article PMC10421887 (Scientific Reports, 2023)

Molecular target: T1, SARS-CoV-2 Nucleocapsid Protein with GST-tag, biotinylated (Severe acute respiratory syndrome …, UniProt P0DTC9)
T1 construct: also called NP; N-GST
Assay: ELISA; […], room temperature; […]
Settings: one partner purified

B1: Fab N1G1 (Fab, V domains shown)
VH: EVQLLESGGGLVQPGGSLRLSCAASGFTFSDYYMHVRQAPGKGLEWVSEINPSSGNTDYADSVKGRFTISRDNSKNTLYLQMNSLRAEDTAVYYCAREYEEHGYYLTDYYFDYWGQGTLVTVSS
VL: EIVLTQSPGTLSLSPGERATLSCRASQSVSSSALAWYQQKPGQAPRLLIYGASSRATGVPDRFSGSGSGTDFTLTISRLEPEDFAVYYCQQMHSTPWTFGQGTKVEIK
notes: also called positive control for anti-NP1 & 2 screening
B1: binds.
